Biological target: Rluc-tagged smAKAP, a peptide derived from an RI-specific AKAP
Assay: Renilla luciferase (Rluc) protein-fragment complementation assay (PCA)
Conditions: bar labelled L50R:smAKAP; parent: est. 13; read off a plot

response: 1.5 RLU 10^4
Substance: Rluc-tagged RIβ WT (Renilla luciferase protein-fragment complementation hybrid protein) (from UniProt P31321) L50R
